Test: soluble on expression in E. coli; label from the status in PepcDB or PDB records
In the case of “MGSDKIHHHHHHMDDLMGYVIGETSNTELNFLAKHMPEIGSYVSINYCDLEILGMVESVNQGCKIFEDVYNVKDFEKLKDFENNDSYYTIGKIKILGDVKNMQIPRIPPKPGTEVYDASEKILGEIFSKGTIEIGNLISADSKVKLDVNKLCSRHLAILAITGMGKSNTVSVLLEELNNIHATVLVFDMHREYVEIEAKNSTIRRNIIRPKINVYNMSYDALMSLAGVDPQATVQRAMGRRAMKKIKESKKEVDFNTVDEYINSIINELNYYMGMDEFKSKVDSILTLIMRFEDLMTFKDKITAINYNPIQDIKENYVNIVDISELDESSTDLIISYFTGEILKDRKKVLWDTKVAKPIFIIYEEAHLIVPQNRPTKSKIPISKIAREGRKFGVGICLVSQRPKTLDQESLSQCNNFIISKLIEPSDQKHVQHASENLSEDLLNQLPGLNVGEAVIIGPCLKIPAMVKIKRFEGEYGGEDVKFDELWTTEKEKNIPEFIESNELFNDDL”, the “soluble on expression in E. coli” value was “not soluble”.
In the case of “DEGPLMMNAFEMITLSQGLNLSALFDRRQDFVKRQTRFVSRREPSEIIANIEAVANSMGFKSHTRNFKTRLEGLSSIKAGQLAVVIEIYEVAPSLFMVDVRKAAGETLEYHKFYKKLCSKLENIIWRATEGIPKSEILRTITF”, the “soluble on expression in E. coli” value was “soluble”.
With “MMFSLSKELEEYRAKIREYAQKTVREYAKQMDETNDGGDKIVKDLGEMGLLGMKQPTKYGGLGLGEMAFAIATEELGAESGGASHSLHTQQNALQLLVSVGGDSAQEWIEKGIKAKEVYAVALTEPQAGSDLGALQTTAKPDGNELVLNGEKIFTSAASFSTKMVVLARTSGNPGDRQGISLLLIDSKLPGIEIHKLDIMGIRGAGVSYVKFNNVRIPKDSIIGKEGDAYRGALKALMVSRNGYAGIAVGIARGALEEAISRAQSRKQFGKALIEQEWISFNLADAYIKVEAARLLTWRAAQLFDNDYEATTEASMAKYYAAVTATEVTRLALHIFGGHGLNRGSKVERLYRDAKIMEIAEGTNEMQLVAVSRLFQPKK” the “soluble on expression in E. coli” value was “soluble”.
With “MTENILRKSDEEIQKEITARVKALESMLIEQGILTTSMIDRMAEIYENEVGPHLGAKVVVKAWTDPEFKKRLLADGTEACKELGIGGLQGEDMMWVENTDEVHHVVVCTLCSCYPWPVLGLPPNWFKEPQYRSRVVREPRQLLKEEFGFEVPPSKEIKVWDSSSEMRFVVLPQRPAGTDGWSEEELATLVTRESMIGVEPAKAV” the “soluble on expression in E. coli” value was “soluble”.
With “GDDNEIEIPKAPVLEKAQLALAIKSEEGAVTKTGETTPTDADVNTLTVGVFGVDGWSVIYTKDATPNSDGTKDVGPQEVYAGEAHVVVVANAAPVIQTELAKAKDITDFIETTINLSDETLTKGLTMSSKVLDVTLVANTTNYIGYDDEVGDITVKDISGKEVYGAGPVPLVRDVASIALAGADIGNPENANYESKSFVLKEVFIASAKGVSSVASTEEWGTIEKDFFGDTHFGYLDYKVGLLFLTSPNNIDEGSYKKGLQTKYDALAKKHVENDPALNHEFYVYENTKGEVKSGESNVNEAYANHTLLIVKGDYTYLPQGAKESITKENCYYAIPVGEEVTIDGTEKRSKFYVQRNYKYEISLTIIGPGSEIPYDPMISTNVSASVKVEPWNVKTIHEEVE” the “soluble on expression in E. coli” value was “soluble”.
In the case of “MSLIGETINKLKVIKESSKRDKSRCKMYECLCECGEVIIVRSSTLRQGKIKSCGCESNKIHSELMRERNTTHGLSSNPMYQRWLGMKQRCYDVNAINYKNYGGRGIEICEEWKNDFKKFYDYMGDPPNENYQIDRINNDGNYEPGNVKWSTRSENSTNIRKKEGHHHHHH”, the “soluble on expression in E. coli” value was “soluble”.
With “MLRHNVPIRRDLDKIACDHGFDFHVIDNEIYWDESRAYRFTLRQIEEQIEKPTAELHQMCLEIVERAVRDEQSMQQLAIPPLYWDVIAESWRSRDPSLYGRMDFVWCGKDPVKLLEYNADTPTSLYESSYFQWLWLEDARRSGAIPRDADQYNAIQERLIARFSELYSREPLYFCCCEDTDEDRTTVLYLQDCAQQAGQETRFIYIEELGLGVGGVLTDLDDNVIRRAFKLYPLEWMMRDDNGPLLRKRREQWIEPLWKSILSNKGLLPLLWRFFPGHPNLLPAWFEGEKSLAAPGESSVRKPIYSREGGNVTIFDERQNVIDHADGDYADEPMIYQAFQPLPRFGDSYTLIGSWIIDDEASGMGIREDNTLITKDTSRFVPHYIAG” the “soluble on expression in E. coli” value was “not soluble”.

Reference: the DeepSol protein solubility set
